Measured values from the RNAGym collection of RNA variant scans (doi:10.1073/pnas.2313332121).
Variants at the floor of the assay were thinned out.

B1: TPR 5TU (parent)
chain: GGAUCUUCUCGAUCUAACAAAAAAGACAAAUCUGCCACAAAGCUUGAGAGCAUCUUCGGAUGCAGAGGCGGCAGCCUUCGGUGGCGCGAUAGCGCCAACGUUCUCAACUAUGACACGCAAAACGCGUGCUCCGUUGAAUGGAGUUUAUCAUG

Variants of: B1
Assay: polymerase ribozyme fitness, log enrichment relative to wild type (log ratio); higher = more active; in vitro selection for triplet polymerase activity
In short: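 For each subunit of a heterodimeric triplet polymerase ribozyme, a mutant library was built by PCR and transcribed, then taken through a single in vitro selection round in triplicate. Selection involved annealing to a biotinylated primer, the partner subunit and triplets, incubation frozen at −7 °C, gel excision of extended constructs, capture on streptavidin beads and RT-PCR. Genotypes were retained after Illumina sequencing of inputs and outputs only with ≥10 input reads and ≥1 read in each output. Fitness is defined as the logarithm of a genotype's enrichment relative to wild-type enrichment, using inverse-variance-weighted averages across replicates, with the logarithm taken to base 2.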

Compared with C93U C116U A122U A150C, C93G A107U is lower in “polymerase ribozyme fitness (log ratio)” value: -3.57 for the first, -4.14 for the second.

Going from C87U C123U G126U to A91C U102G A138C, the “polymerase ribozyme fitness (log ratio)” value falls from 0.848 to no more than -4.2.

C93A C118U and C93A C118G are within 0.2 log units of each other in “polymerase ribozyme fitness (log ratio)” value: -3.29 for the first, -3.44 for the second.

A91U U139A G140C G143C and G92U C96A U127C U145C A147C cannot be ordered by “polymerase ribozyme fitness (log ratio)” value: no more than -4.2 for the first, no more than -4.2 for the second.

First: G94A A97U C125G
Second: C87U U144G
The “polymerase ribozyme fitness (log ratio)” value of the first is lower: -2.14 for the first, -0.986 for the second.

Going from A91G U130G A150G to G92C A122C A150G, the “polymerase ribozyme fitness (log ratio)” value rises from no more than -4.2 to -2.28.

First: G94U C95A G152A
Second: A89G U139G
The “polymerase ribozyme fitness (log ratio)” value of the first is lower: -3.85 for the first, -0.875 for the second.

Compared with C93G C108G C116G G133C, A91C A106G is lower in “polymerase ribozyme fitness (log ratio)” value: -3.85 for the first, no more than -4.2 for the second.

First: C93G C118U C123U
Second: C93G G94U C108G
The “polymerase ribozyme fitness (log ratio)” value of the first is higher: -3.29 for the first, no more than -4.2 for the second.

First: C87G A91C U127G A142U
Second: G92A C116U
The “polymerase ribozyme fitness (log ratio)” value of the first is lower: no more than -4.2 for the first, -2.29 for the second.

First: G92A C116G
Second: A89U C95A A97U U111G G124A C149A U151C
The “polymerase ribozyme fitness (log ratio)” value of the first is higher: -2.6 for the first, no more than -4.2 for the second.

C87G C93A and G92A A97G A122U U148C are the same in “polymerase ribozyme fitness (log ratio)” value: -3.63 for the first, -3.63 for the second.

First: G88A C95A C123A
Second: U90C G126U
The “polymerase ribozyme fitness (log ratio)” value of the first is lower: no more than -4.2 for the first, -3.66 for the second.

G94C G133A and G88C G141C are within 0.2 log units of each other in “polymerase ribozyme fitness (log ratio)” value: -4.02 for the first, -3.84 for the second.

Compared with C87G C99U, G86U A106C is higher in “polymerase ribozyme fitness (log ratio)” value: no more than -4.2 for the first, -1.79 for the second.

First: C93G G140U
Second: G94A A97G
The “polymerase ribozyme fitness (log ratio)” value of the first is lower: no more than -4.2 for the first, -2.19 for the second.

Going from G88A C96A C103U to C87U C116U C118A, the “polymerase ribozyme fitness (log ratio)” value rises from no more than -4.2 to -0.495.

First: A89C A150C
Second: G94U C108U
The “polymerase ribozyme fitness (log ratio)” value of the first is lower: -3.81 for the first, -3.54 for the second.

First: C93A U102A A137C
Second: A89G C95U A142C
The “polymerase ribozyme fitness (log ratio)” value of the first is lower: no more than -4.2 for the first, -2.81 for the second.

Compared with C87U C99G, C87A A97U is lower in “polymerase ribozyme fitness (log ratio)” value: -1.97 for the first, no more than -4.2 for the second.

Going from C87A C103U C108A A110C C132A to A89G G117U, the “polymerase ribozyme fitness (log ratio)” value rises from no more than -4.2 to -0.974.

Compared with C93U A98C, A91C A98G A122U U144C A147U A150C is lower in “polymerase ribozyme fitness (log ratio)” value: -0.981 for the first, no more than -4.2 for the second.

Compared with C93A C116A G126A G141C, A91G C114A C116U A137C is higher in “polymerase ribozyme fitness (log ratio)” value: no more than -4.2 for the first, -3.79 for the second.

Going from G92A G152U to A91U U111C, the “polymerase ribozyme fitness (log ratio)” value falls from -3.58 to no more than -4.2.

Compared with G86U A91C C99G U109G, C93A A97U is higher in “polymerase ribozyme fitness (log ratio)” value: no more than -4.2 for the first, -3.38 for the second.

First: C93A A97G
Second: C93A G141A
The “polymerase ribozyme fitness (log ratio)” value of the first is lower: -3.37 for the first, -1.74 for the second.

C87A C103A C114U and A91G C118G G143C cannot be ordered by “polymerase ribozyme fitness (log ratio)” value: no more than -4.2 for the first, no more than -4.2 for the second.

Going from C93G U146G to A89U C96U A138G U146G, the “polymerase ribozyme fitness (log ratio)” value falls from -3.41 to no more than -4.2.

First: A89C A107C
Second: A89C A107U
The “polymerase ribozyme fitness (log ratio)” value of the first is higher: -4.06 for the first, no more than -4.2 for the second.

A91G C123U and A91G C123G are within 0.2 log units of each other in “polymerase ribozyme fitness (log ratio)” value: -2.7 for the first, -2.82 for the second.

Compared with A91U C118G G141C, C87G U144G is lower in “polymerase ribozyme fitness (log ratio)” value: -3.94 for the first, no more than -4.2 for the second.

Compared with C87U A120U C123G, U90C G94U is lower in “polymerase ribozyme fitness (log ratio)” value: -1.06 for the first, -3.46 for the second.

First: C93A A119G A120U
Second: C87U C118U U135G
The “polymerase ribozyme fitness (log ratio)” value of the first is higher: -2.53 for the first, no more than -4.2 for the second.

Compared with G94C G100C C131U G133C C149G, C87A C125U is higher in “polymerase ribozyme fitness (log ratio)” value: no more than -4.2 for the first, -4.14 for the second.

G88A and G88U are within 0.2 log units of each other in “polymerase ribozyme fitness (log ratio)” value: -3.75 for the first, -3.89 for the second.

First: G88C
Second: G88U C105U
The “polymerase ribozyme fitness (log ratio)” value of the first is lower: -4.19 for the first, -3.83 for the second.

Compared with G94C U135A G141A, G92U C105U A107U A110C A138C is lower in “polymerase ribozyme fitness (log ratio)” value: -2.22 for the first, no more than -4.2 for the second.

Compared with C93U C123U U127C U135C, G92U A121G G143C U145G is higher in “polymerase ribozyme fitness (log ratio)” value: no more than -4.2 for the first, -3.44 for the second.

Compared with G88A C116U, G92C C95A is higher in “polymerase ribozyme fitness (log ratio)” value: -4.05 for the first, -2.12 for the second.

C87A A91G C103U U135C and G86C C87G C108G cannot be ordered by “polymerase ribozyme fitness (log ratio)” value: no more than -4.2 for the first, no more than -4.2 for the second.

Going from G88U C95U A121U A122G G124A to C93U G152U, the “polymerase ribozyme fitness (log ratio)” value rises from no more than -4.2 to -3.49.

For C93U G152A, the “polymerase ribozyme fitness (log ratio)” value was -3.11.
